Key:
[1] = western blot of HDAC5 protein, mBMSCs; conditions: glycan lost; control: DMSO
[2] = HDAC5 protein level in bone tissue; conditions: glycan lost; control: Ogtfl/fl mice

B1: HDAC5: OSMI-1 (protein)
parent chain: MNSPNESDGMSGREPSLGILPRTPLHSIPVAVEVKPVLPGAMPSSMGGGGGGSPSPVELRGALAGPMDPALREQQLQQELLVLKQQQQLQKQLLFAEFQKQHDHLTRQHEVQLQKHLKQQQEMLAAKRQQELEQQRQREQQRQEELEKQRLEQQLLILRNKEKSKESAIASTEVKLRLQEFLLSKSKEPTPGGLNHSLPQHPKCWGAHHASLDQSSPPQSGPPGTPPSYKLPLLGPYDSRDDFPLRKTASEPNLKVRSRLKQKVAERRSSPLLRRKDGTVISTFKKRAVEITGTGPGVSSVCNSAPGSGPSSPNSSHSTIAENGFTGSVPNIPTEMIPQHRALPLDSSPNQFSLYTSPSLPNISLGLQATVTVTNSHLTASPKLSTQQEAERQALQSLRQGGTLTGKFMSTSSIPGCLLGVALEGDTSPHGHASLLQHVCSWTGRQQSTLIAVPLHGQSPLVTGERVATSMRTVGKLPRHRPLSRTQSSPLPQSPQALQQLVMQQQHQQFLEKQKQQQMQLGKILTKTGELSRQPTTHPEETEEELTEQQEALLGEGALTIPREGSTESESTQEDLEEEEEEEEEEEEDCIQVKDEDGESGPDEGPDLEESSAGYKKLFADAQQLQPLQVYQAPLSLATVPHQALGRTQSSPAAPGSMKSPTDQPTVVKHLFTTGVVYDTFMLKHQCMCGNTHVHPEHAGRIQSIWSRLQETGLLGKCERIRGRKATLDEIQTVHSEYHTLLYGTSPLNRQKLDSKKLLGPISQKMYAMLPCGGIGVDSDTVWNEMHSSSAVRMAVGCLVELAFKVAAGELKNGFAIIRPPGHHAEESTAMGFCFFNSVAITAKLLQQKLSVGKVLIVDWDIHHGNGTQQAFYNDPSVLYISLHRYDNGNFFPGSGAPEEVGGGPGVGYNVNVAWTGGVDPPIGDVEYLTAFRTVVMPIAQEFSPDVVLVSAGFDAVEGHLSPLGGYSVTARCFGHLTRQLMTLAGGRVVLALEGGHDLTAICDASEACVSALLSVELQPLDEAVLQQKPSVNAVATLEKVIEIQSKHWSCVQRFAAGLGCSLREAQTGEKEEAETVSAMALLSVGAEQAQAVATQEHSPRPAEEPMEQEPAL
With B1 the expression_or_secretion [1] was “increases”.

B2: HDAC5: Ogtfl/fl; Bglap-Cre (Ogt cKO) (protein)
parent chain: B1 parent chain
For B2, the expression_or_secretion [2] was “increases”.
